These results are taken from publication PMC6308234 (Scientific Reports, 2018).

The target of assay [1] is T1, DENV-2 nonstructural protein 1 (NS1), recombinant (Dengue virus 2, strain …, UniProt P29990).
T1 construct: also called DENV-2 NS1; NS1 from DENV-2; source: bought: Native Antigen Company (recombinant)
The assay is described as follows: MagPlex (Luminex) bead assay, direct binding. To be noted: both partners purified.

For assay [2], the target named is T2, DENV-1 nonstructural protein 1 (NS1), recombinant (Dengue virus 1, strain Nauru/West …, UniProt P17763).
T2 construct: also called DENV-1 NS1; NS1 from DENV-1; source: bought: Native Antigen Company (recombinant)
Description: SPR. Conditions: both partners purified.

Assay [3] concerns the target T3, DENV-4 nonstructural protein 1 (NS1), recombinant (Dengue virus 4, strain …, UniProt P09866).
T3 construct: also called DENV-4 NS1; NS1 from DENV-4; source: bought: Native Antigen Company (recombinant)
Description: SPR. Conditions: both partners purified.

For assay [4], the target named is T1, DENV-2 nonstructural protein 1 (NS1), …. The assay is described as follows: SPR. Conditions: both partners purified.
In assay [5] the target is T4, DENV-3 nonstructural protein 1 (NS1), recombinant (Dengue virus 3, strain Sri …, UniProt Q6YMS4).
T4 construct: also called DENV-3 NS1; NS1 from DENV-3; source: bought: Native Antigen Company (recombinant)
Description: SPR. Conditions: both partners purified.

The target of assay [6] is T2, DENV-1 nonstructural protein 1 (NS1), …. Description: SPR. To be noted: both partners purified. The source holds these as a separate data set.
For assay [7], the target named is T3, DENV-4 nonstructural protein 1 (NS1), …. The assay is described as follows: SPR. To be noted: both partners purified. This is another data set of the same source.
In assay [8] the target is T1, DENV-2 nonstructural protein 1 (NS1), …. The assay is described as follows: SPR. Conditions: both partners purified. The source holds these as a separate data set.
The target of assay [9] is T4, DENV-3 nonstructural protein 1 (NS1), …. The assay is described as follows: SPR. Conditions: both partners purified. The source holds these as a separate data set.
Assay [10] has as its target T5, DENV-2 nonstructural protein 1 (NS1), recombinant (dengue virus serotype 2 (DENV-2)).
T5 chain: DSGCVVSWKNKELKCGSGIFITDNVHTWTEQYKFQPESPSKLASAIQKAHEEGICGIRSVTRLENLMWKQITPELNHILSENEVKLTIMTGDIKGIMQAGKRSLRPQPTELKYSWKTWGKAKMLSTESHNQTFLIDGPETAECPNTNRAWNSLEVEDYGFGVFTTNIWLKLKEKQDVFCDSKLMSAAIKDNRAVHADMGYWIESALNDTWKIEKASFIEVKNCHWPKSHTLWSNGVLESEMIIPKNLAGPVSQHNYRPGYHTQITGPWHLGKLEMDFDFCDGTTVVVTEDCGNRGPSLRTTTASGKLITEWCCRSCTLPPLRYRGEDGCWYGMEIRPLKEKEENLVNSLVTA
Description: SPR; sdAb immobilized. (In general: Surface plasmon resonance follows binding to a sensor surface in real time, without labels.)

Assay [11] addresses T5, DENV-2 nonstructural protein 1 (NS1), …. Description: SPR; sdAb immobilized.
The target in assay [12] is T6, DENV-1 nonstructural protein 1 (NS1), recombinant (dengue virus serotype 1 (DENV-1)).
T6 chain: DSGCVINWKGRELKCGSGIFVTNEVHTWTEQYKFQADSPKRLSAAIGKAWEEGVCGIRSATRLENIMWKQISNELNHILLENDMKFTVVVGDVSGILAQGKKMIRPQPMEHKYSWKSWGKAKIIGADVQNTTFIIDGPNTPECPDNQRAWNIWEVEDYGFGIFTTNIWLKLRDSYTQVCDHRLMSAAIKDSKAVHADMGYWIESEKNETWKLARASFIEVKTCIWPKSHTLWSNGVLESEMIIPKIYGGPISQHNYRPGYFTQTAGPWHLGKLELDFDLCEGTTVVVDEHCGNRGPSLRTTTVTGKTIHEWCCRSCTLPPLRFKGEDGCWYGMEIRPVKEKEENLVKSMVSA
The assay is described as follows: SPR; sdAb immobilized.

Assay [13] deals with T5, DENV-2 nonstructural protein 1 (NS1), …. The assay is described as follows: SPR; NS1 immobilized.
In assay [14] the target is T7, DENV-4 nonstructural protein 1 (NS1), recombinant (dengue virus serotype 4 (DENV-4)).
T7 chain: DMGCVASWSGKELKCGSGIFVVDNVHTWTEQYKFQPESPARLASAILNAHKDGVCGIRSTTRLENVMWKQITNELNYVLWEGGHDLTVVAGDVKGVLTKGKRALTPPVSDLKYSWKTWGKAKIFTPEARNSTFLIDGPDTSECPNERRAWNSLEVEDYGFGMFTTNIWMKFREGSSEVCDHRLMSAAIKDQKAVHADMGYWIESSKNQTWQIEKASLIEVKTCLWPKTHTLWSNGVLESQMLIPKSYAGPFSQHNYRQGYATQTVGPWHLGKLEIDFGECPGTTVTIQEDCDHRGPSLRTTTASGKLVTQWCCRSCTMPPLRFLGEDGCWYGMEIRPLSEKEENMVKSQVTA
Description: SPR; NS1 immobilized.

Assay [15] concerns the target T6, DENV-1 nonstructural protein 1 (NS1), …. Description: SPR; NS1 immobilized.
The target in assay [16] is T8, DENV-3 nonstructural protein 1 (NS1), recombinant (dengue virus serotype 3 (DENV-3)).
T8 chain: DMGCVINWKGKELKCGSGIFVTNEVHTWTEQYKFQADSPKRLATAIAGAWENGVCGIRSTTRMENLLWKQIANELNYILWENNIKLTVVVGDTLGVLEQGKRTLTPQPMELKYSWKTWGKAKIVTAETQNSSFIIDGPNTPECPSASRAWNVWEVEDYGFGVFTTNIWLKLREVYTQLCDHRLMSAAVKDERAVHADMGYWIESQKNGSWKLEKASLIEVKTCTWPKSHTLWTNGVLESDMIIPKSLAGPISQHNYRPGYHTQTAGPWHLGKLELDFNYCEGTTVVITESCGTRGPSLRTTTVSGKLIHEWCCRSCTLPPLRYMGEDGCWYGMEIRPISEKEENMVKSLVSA
The assay is described as follows: SPR; NS1 immobilized.

B1: biotinylated sdAb DB5 (VHH)
VHH: DVQLQASGGGLVQDGGSLRLSCAASGLGFRIHSMGWYRQAPGKARDLVAVITDSGQTNYAPSVKGRFTISRESAGNTVYLQMNSLKPDDTAVYYCAVTTWDPHSYWGQGTQVTVSS
notes: also called Bt-DB5
B1: the binding result in assay [1] is given as “no binding”.

B2: sdAb DC7 (VHH)
VHH: EVQLQASGGGSVQAGGSLRLSCAHSSITVPDYTIGWYRRAPGKGGEEVSLISMHGGRTWYAGSVKGRFAISRDSVKNTVYLQMNNLKPEDTDIYYCGGTTFGLAAAPNEYDSWGQGSQVTVSS
notes: source: E. coli Turner (DE3), pET22b, periplasmic, purified (Ni-Sepharose, SEC)
As usually defined, the Kd is the constant that tells how readily two partners part at equilibrium. The koff is a measure of how fast the partners let go of each other. B2: the Kd in [2] worked out at 0.8 nM; in assay [3] it was 0.7 nM; in assay [4] it was 0.6 nM; in [5], 1.7 nM; in assay [6] it was 9.1 nM; in [7], 2.2 nM. For the same molecule, the Kd in [8] is 2.6 nM; in assay [9], 1.2 nM; in assay [10], 0.556 nM. The off-rate constant (koff) amounted to 0.000155 s⁻¹ in [11] and 0.00021 s⁻¹ in assay [12].

B3: sdAb DC4 (VHH)
VHH: EVQLQASGGGLVQAGGSLRLSCAASERTFSHYFVGWFRQAPGKEREFVARITWSGSNVEYEDAVKDRFTLSSDNAKNTVYLHMNSLKPEDTAVYYCAAANTIWTPTIRDYNVWGQGTQVTVSS
notes: as for B2
Regarding B3, the off-rate constant (koff) came to 0.00604 s⁻¹ in assay [13], 0.00501 s⁻¹ in assay [14], 0.00889 s⁻¹ in assay [15] and 0.00741 s⁻¹ in assay [16]. The Kd turned out to be 62 nM in [6], 43 nM in [7], 42.1 nM in assay [8] and 31.6 nM in assay [9].

B4: sdAb DD5 (VHH)
VHH: EVQLQASGGGLVQAGGSLRLSCAASGRAFSSETMGWFRQAPGKEREFVAAIWRIGGSTYNTDYADSVKGRFAISADRAKNTVDLQMNTLKPEDTAVYYCAGKMRGRSVNLYDYDYWGQGTQVTVSS
notes: as for B2
On to B4, for which the dissociation rate constant (koff) in assay [13] turned out to be 0.000347 s⁻¹; in assay [14], 0.00193 s⁻¹; in [15] it was 0.000383 s⁻¹; in assay [16], 0.000269 s⁻¹; in [11], 7.99e-05 s⁻¹; in [12], 0.000318 s⁻¹. Further, the equilibrium dissociation constant (Kd) in [2] stood at 4.2 nM; in [3], 6.2 nM; in assay [4], 0.9 nM; in assay [5] it was 25.1 nM; in assay [6], 2.8 nM; in assay [7], 24 nM. Besides, the Kd in assay [8] was determined as 4.5 nM; in assay [9] it was 3.2 nM.

B5: sdAb DD9 (VHH)
VHH: EVQLQASGGGLVQAGGSLRVSCAASGIAFTNYALAWYRQPPGKQREWVATVGVLGGTKYADSVKGRFAISRDNAKNTVILQMNSLKPVDTAVYFCAAVEWSNGRYYWDSWGQGTQVTVSA
notes: as for B2
Regarding B5, the koff in assay [13] was found to be 0.000545 s⁻¹; in assay [14], 0.00428 s⁻¹; in assay [15] it was 0.00141 s⁻¹; in assay [16] it was 0.000951 s⁻¹; in assay [11], 0.00034 s⁻¹; in assay [12], 0.000289 s⁻¹. Further, the equilibrium dissociation constant (Kd) in assay [2] came out at 2.7 nM; in assay [3] it was 7.1 nM; in assay [4], 3.5 nM; in assay [5] it was 3.1 nM; in assay [6], 18 nM; in assay [7], 34.8 nM. For the same molecule, the Kd is 6.7 nM in assay [8] and 21.8 nM in [9].

B6: sdAb DH12 (VHH)
VHH: EVQLVESGGGSVQAGGSLRLSCAASERTFSYYFMGWFRQAPGKEREWVARIRWNGDGADYTDAVKDRFTISSDHAKNTVYLQMNSLKPEDTAVYYCAAANSIWKPTTRDYNYWGQGTQVSVSS
notes: as for B2
Regarding B6, the koff is 0.00333 s⁻¹ in [13], 0.00604 s⁻¹ in [14], 0.00658 s⁻¹ in assay [15] and 0.00323 s⁻¹ in [16]. In addition, the Kd is 14.4 nM in assay [6], 20.9 nM in assay [7], 9.8 nM in assay [8] and 12.4 nM in [9].
